Molecular target: H7N9病毒的神经氨酸酶(NA) (avian influenza virus H7N9)
Experiment: cell-based or functional assay

B1: 抗禽流感H7N9神经氨酸酶抗原的单克隆抗体D3 (antibody, V domains shown)
VH: IQVKLQESGPELVKPGASVKISCKASGYSFTGYYMHWVKQSHVKSLQWIGRINPYNGATSYNQNFKDKASLTVDKSSSTAYMELHSLTSEDSAVYYCARSGNYAMDYWGQGTTVTVSS
VL: DIELTQSPASLAVSLGQRATISYRASKSVSTSGYSYMHWNQQKPGQPPRLLIYLVSNLESGVPARFSGSGSGTDFTLNIHPVEEEDAATYYCQHIRELTRSEGGPSSRSN
NA活性抑制IC50 (酶联凝集素法 ELLA): 5.22 µg/mL

Source: patent CN112574297A
